In general, Kd refers to the concentration at which binding is half-saturated. Low values mean a tighter complex, high ones a looser complex.

Kd data for one substance are collected here from patent US20200088726A1.

This experiment addresses ESO 9V WT-A*02:01 pMHC (human). As to the kind of experiment: BLI (OctetRED 384), pMHC immobilised on streptavidin biosensor, soluble 1G4 TCR in 1:2 dilution series from 24 µM; fit R² = 0.9992.

As for 1G4 TCR, the equilibrium dissociation constant (Kd) is 5.12 µM.
